For two substances, mean lifetime of the connection and koff results are on record in paper PMC7870652.

The target of test [1] is truncated CDH23 EC1-5 dimer fusion protein (two EC1-5 strands) (mouse). The test is described as follows: BLI; CDH23 biotinylated on its SNAPtag and immobilised on streptavidin-coated PEG-biotin aminopropylsilane sensors; 10–300 nM PCDH15 in solution; TBS-Tween + Ca^2+ buffer, 2 mM Ca^2+; traces of a drift sensor and of PCDH15 lacking EC1-2 subtracted; dissociation fitted with a single exponential; on-rates measured at 300 nM PCDH15 (effective on-rate); Octet Red384. (In general: Biolayer interferometry detects binding as a change in optical thickness at a sensor tip.)

In test [2] the target is CDH23 EC1-5/EC3-5 single-bond fusion protein (asymmetric Fc heterodimer with one EC1-2 binding domain) (mouse) (UniProt Q99PF4). The test can be described thus: single-molecule force spectroscopy (optical tweezers); single-bond EC1-5/EC3-5 proteins, each on a DNA tether on a streptavidin bead in a dual-beam optical trap; 50 µM Ca2+, TBS buffer, room temperature; Bell-Evans fit of most-probable unbinding forces against loading rate, constants extrapolated to zero force.

Consider “truncated PCDH15 EC1-5 dimer fusion protein (two EC1-5 strands) (Fc fusion)”, for which, in test [1], the mean lifetime of the connection at zero force was found to be 27.1 s.
For the substance “PCDH15 EC1-5/EC3-5 single-bond fusion protein (asymmetric Fc heterodimer with one EC1-2 binding domain) (from UniProt Q99PJ1-1 27-1943; Q99PJ1-1 27-1943) (Fc fusion)”, in test [2], the koff (commonly the rate constant with which the complex falls apart) was 1.2 s⁻¹.
